# Test results as given in paper PMC9706586 (Theranostics, 2022).
# T1: FcγRIIb (human, UniProt P31994 43-217)
# T1 construct: human FcγRIIb, extracellular domain; source: HEK293F, secreted, purified (HisTrap HP); not shown: His6, C-terminal, kept
# T1 sequence (looked up): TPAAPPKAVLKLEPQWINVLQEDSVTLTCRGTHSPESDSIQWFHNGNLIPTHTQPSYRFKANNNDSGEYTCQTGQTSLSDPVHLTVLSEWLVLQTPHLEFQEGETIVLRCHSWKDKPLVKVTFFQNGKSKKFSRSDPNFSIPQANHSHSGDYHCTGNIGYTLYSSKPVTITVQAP
# T2: CD20 (human, UniProt P11836 1-297)
# T2 construct: CD20, the antigen of rituximab; His-tagged, captured on the anti-His chip; also called antigen CD20; hCD20
# T2 sequence (looked up): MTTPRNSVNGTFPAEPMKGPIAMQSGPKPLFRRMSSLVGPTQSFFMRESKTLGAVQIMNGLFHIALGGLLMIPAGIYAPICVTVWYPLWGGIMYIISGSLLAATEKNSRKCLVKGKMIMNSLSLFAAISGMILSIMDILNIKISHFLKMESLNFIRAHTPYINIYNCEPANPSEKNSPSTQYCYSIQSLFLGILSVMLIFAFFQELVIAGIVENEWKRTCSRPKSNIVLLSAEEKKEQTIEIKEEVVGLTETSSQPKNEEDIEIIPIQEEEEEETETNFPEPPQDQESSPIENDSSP
# T3: FcγRIIa^H131 (human, UniProt P12318 34-217)
# T3 construct: The methods name FcγRIIa only; source: HEK293F, secreted, purified (HisTrap HP); not shown: His6, C-terminal, kept
# T3 sequence (looked up): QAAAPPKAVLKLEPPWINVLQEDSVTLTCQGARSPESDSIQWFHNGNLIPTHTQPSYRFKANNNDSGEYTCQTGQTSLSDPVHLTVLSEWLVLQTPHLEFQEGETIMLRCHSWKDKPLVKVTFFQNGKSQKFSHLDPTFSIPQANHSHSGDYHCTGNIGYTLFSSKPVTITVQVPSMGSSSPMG
# B1: Rituximab X-body (antibody, human IgG1, kappa)
# heavy: not shown
# chain: QIVLSQSPAILSASPGEKVTMTCRASSSVSYIHWFQQKPGSSPKPWIYATSNLASGVPVRFSGSGSGTSYSLTISRVEAEDAATYYCQQWTSNPPTFGGGTKLEIKRTVAAPSVFIFPPSDEQLKSGTASVVCLLNNFYPREAKVQWKVDNALQSGNSQESVTEQDSKDSTYSLSSTLTLSKADYEKHKVYACEVTHQGLSSPVTKSFNRGECGGGGSGGGGSGGGGSGGGGSGGGGSGGGGSVPPPPPCCHPRLSLHRPALEDLLLGSEANLTCTLTGLRDASGATFTWTPSSGKSAVQGPPERDLCGCYSVSSVLPGCAQPWNHGETFTCTAAHPELKTPLTANITKSGNTFRPEVHLLPPPSEELALNELVTLTCLARGFSPKDVLVRWLQGSQELPREKYLTWASRQEPSQGTTTYAVTSILRVAAEDWKKGETFSCMVGHEALPLAFTQKTIDRMAGK
# notes: 6×G4S linker; IgA2 Fc (hinge, CH2, CH3) without the tailpiece region; Tetramer of two heavy chains and two chimeric chains: two Fabs, one IgG1 Fc, one IgA2 Fc; also called anti-CD20 X-body; anti-human CD20 X-body with 6×G4S linker; source: HEK293F, transfected (pTT5), purified (HiTrap Protein A, Superdex 200 Increase); copies: 2 + 2
# Experiments:
# Experiment in all cases: SPR; Biacore T200, CM5 chip with immobilised anti-His antibody, 20 °C; His-tagged receptor or antigen captured; serial dilutions of anti-CD20 X-body, IgG or IgA injected (120 s binding, 240 s dissociation, 30 µL/min); 1:1 binding kinetic model or steady-state affinity model
# Conditions in all cases: both partners purified
# [1] = biological target: T1, FcγRIIb
# [2] = biological target: T2, CD20
# [3] = biological target: T3, FcγRIIa^H131
# [4] = biological target: T4, FcγRIIIa^F158 (human, UniProt P08637 17-208)
# T4 construct: source: HEK293F, secreted, purified (HisTrap HP); not shown: His6, C-terminal, kept
# T4 sequence (P08637 17-208): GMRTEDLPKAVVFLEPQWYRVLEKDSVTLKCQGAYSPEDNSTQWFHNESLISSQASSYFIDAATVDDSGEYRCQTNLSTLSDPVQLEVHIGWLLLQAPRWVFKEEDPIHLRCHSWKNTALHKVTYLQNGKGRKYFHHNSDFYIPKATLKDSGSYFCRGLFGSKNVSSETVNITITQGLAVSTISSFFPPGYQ
binder,measurement,setting,value
B1,Kd,[1],0.00422 nM
same,Kd,[2],8.04 nM
same,Kd,[3],0.0364 nM
same,Kd,[4],0.0216 nM
